Three molecules from US20170044259A1 (CYTOMX THERAPEUTICS, published 2017) can be followed below.

The target of experiment [1] is T1, human PD-1-Fc (R and D systems, Minneapolis, Minn.) (human, UniProt Q15116 25-167).
T1 construct: bought; also called hPD-1-Fc; hPD-1; not shown: Fc part of the bought fusion
In words: inhibition ELISA on human PD-1-Fc; competitor 2 nM biotinylated PDL2 (hPDL2/Fc). Background: An ELISA detects its analyte on a solid surface through an enzyme-linked reagent.

Experiment [2] concerns the target T1, human PD-1-Fc (R and D systems, …). Briefly: inhibition ELISA on human PD-1-Fc; competitor 2 nM biotinylated PD-L1 (hPDL1/Fc).
Experiment [3] has the same target. In words: plate ELISA on adsorbed human PD-1-Fc, single site saturation fit.
Experiment [4] addresses T2, mouse PD-1 expressed on HEK293 cells (mouse, UniProt Q02242 25-288).
T2 construct: whole, on cells; also called HEK293-mPD-1; mPD-1 HEK293 cells
T2 sequence (looked up): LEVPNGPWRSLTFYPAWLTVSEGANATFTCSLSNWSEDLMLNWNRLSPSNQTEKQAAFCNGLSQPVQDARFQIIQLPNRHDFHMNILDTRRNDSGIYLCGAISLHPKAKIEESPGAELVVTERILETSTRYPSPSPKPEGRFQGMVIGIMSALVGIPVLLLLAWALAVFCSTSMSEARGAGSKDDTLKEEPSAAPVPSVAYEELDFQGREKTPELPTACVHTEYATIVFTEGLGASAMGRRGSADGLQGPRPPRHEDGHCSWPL
Briefly: flow cytometry on mPD-1 HEK293 cells, titration from 150 nM. Background: A flow cytometer gives signals particle by particle.

T1 sequence (Q15116 25-167 limits assumed): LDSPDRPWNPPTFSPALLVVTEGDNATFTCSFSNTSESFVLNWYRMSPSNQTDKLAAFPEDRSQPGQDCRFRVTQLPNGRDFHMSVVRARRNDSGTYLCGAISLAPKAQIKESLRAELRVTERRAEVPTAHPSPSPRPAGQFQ

B1: m136-M14-MHC724 (antibody, V domains shown)
VH: KVMLVESGGDLVKPGGSLKLSCAASGFTFSSYGMSWVRQTPEKRLEWVATISGGGRDIYYADTVKGRFTISRDNAKNTLYLQMSSLRSEDTALYFCARLYLGFDYWGQGTTLTVSS
VL: DIQMTQSPASQSASLGESVTITCLASQTIGTWLAWYQQKPGKSPQLLIYAATSLADGVPSRFSGSGSGTKFSFKISSLQAEDFVSYYCQQLYSIPWTFGGGTKLEIK
notes: mouse hybridoma antibody, mIgG2a/K
As to B1, the IC50 – broadly, the concentration needed to halve the response being measured – was determined as 2.8 nM in experiment [1] and 4.8 nM in experiment [2]. Besides, the Kd – broadly, the equilibrium constant for the complex coming apart – in experiment [3] was determined as 0.19 nM.

B2: J43v2 mIgG2a (antibody, V domains shown)
VH: EVRLLESGGGLVKPEGSLKLSCVASGFTFSDYFMSWVRQAPGKGLEWVAHIYTKSYNYATYYSGSVKGRFTISRDDSRSMVYLQMNNLRTEDTATYYCTRDGSGYPSLDFWGQGTQVTVSS
VL: YELTQPPSASVNVGETVKITCSGDQLPKYFADWFHQRSDQTILQVIYDDNKRPSGIPERISGSSSGTTATLTIRDVRAEDEGDYYCFSGYVDSDSKLYVFGSGTQLTVLG
notes: also called J43 m2a; J43v2 m2a
On to B2, for which the binding result in experiment [4] is on record as “binds”.

B3: m136-M13-MHC723 (antibody, V domains shown)
VH: EVKLVESGGGLVKPGGSLKLSCAASGFTFSGYAMSWVRQTPAKRLEWVAYISNSGGNAHYPDSVKGRFTISRDNAKNTLYLQMSSLRSEDTAMYYCTREDYGTSPFVYWGQGTLVTVSA
VL: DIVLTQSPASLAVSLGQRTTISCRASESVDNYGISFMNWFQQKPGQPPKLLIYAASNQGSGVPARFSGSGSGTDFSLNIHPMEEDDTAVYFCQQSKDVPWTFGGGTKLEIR
notes: mouse hybridoma antibody, mIgG1/K
On to B3, for which the IC50 in experiment [1] stood at 2 nM; in experiment [2], 3.3 nM. This molecule showed a Kd in experiment [3] of 0.19 nM.
